Laboratory results published in IntAct's records for PubMed 24876499.

B1: Phosphatidylinositol 4-kinase beta (Homo sapiens), Q9UBF8-2 (parent)
chain: MGDTVVEPAPLKPTSEPTSGPPGNNGGSLLSVITEGVGELSVIDPEVAQKACQEVLEKVKLLHGGVAVSSRGTPLELVNGDGVDSEIRCLDDPPAQIREEEDEMGAAVASGTAKGARRRRQNNSAKQSWLLRLFESKLFDISMAISYLYNSKEPGVQAYIGNRLFCFRNEDVDFYLPQLLNMYIHMDEDVGDAIKPYIVHRCRQSINFSLQCALLLGAYSSDMHISTQRHSRGTKLRKLILSDELKPAHRKRELPSLSPAPDTGLSPSKRTHQRSKSDATASISLSSNLKRTASNPKVENEDEPVRLAPEREFIKSLMAIGKRLATLPTKEQKTQRLISELSLLNHKLPARVWLPTAGFDHHVVRVPHTQAVVLNSKDKAPYLIYVEVLECENFDTTSVPARIPENRIRSTRSVENLPECGITHEQRAGSFSTVPNYDNDDEAWSVDDIGELQVELPEVHTNSCDNISQFSVDSITSQESKEPVFIAAGDIRRRLSEQLAHTPTAFKRDPEDPSAVALKEPWQEKVRRIREGSPYGHLPNWRLLSVIVKCGDDLRQELLAFQVLKQLQSIWEQERVPLWIKPYKILVISADSGMIEPVVNAVSIHQVKKQSQLSLLDYFLQEHGSYTTEAFLSAQRNFVQSCAGYCLVCYLLQVKDRHNGNILLDAEGHIIHIDFGFILSSSPRNLGFETSAFKLTTEFVDVMGGLDGDMFNYYKMLMLQGLIAARKHMDKVVQIVEIMQQGSQLPCFHGSSTIRNLKERFHMSMTEEQLQLLVEQMVDGSMRSITTKLYDGFQYLTNGIM

Variants of: B1
Details: with rb11a_human RAB11A
N162A was tested, and the “effect of a mutation on the interaction” value was “disrupting interaction strength”. With Y159A the “effect of a mutation on the interaction” value was “disrupting interaction strength”. With Y159A;N162A the “effect of a mutation on the interaction” value was “disrupting interaction strength”. In the case of F165A, the “effect of a mutation on the interaction” value is reported as “disrupting interaction strength”. In the case of G155D, the “effect of a mutation on the interaction” value is reported as “decreasing interaction strength”.
